Reference: patent US20100291160A1, “PHARMACEUTICAL SYSTEM FOR TRANS-MEMBRANE DELIVERY” (priority 2009, published 2010)
Structures can show the parent of a compound that is named as a salt.

B1: Neupogen: a filgrastim (e.g., G-CSF, Neupogen) (protein, UniProt P09919 31-207, looked up)
Granulocyte …: TPLGPASSLPQSFLLKCLEQVRKIQGDGAALQEKLVSECATYKLCHPEELVLLGHSLGIPWAPLSSCPSQALQLAGCLSQLHSGLFLYQGLLQALEGISPELGPTLDTLQLDVADFATTIWQQMEELGMAPALQPTQGAMPAFASAFQRRAGGVLVASHLQSFLEVSYRVLRHLAQP
modifications: filgrastim

Experiments:
[1] = in vitro diffusion of formulation across membrane mounted on vial; type: in vitro ADME, pig or sheep; conditions: for Optimal pH Conditions with Experimental Formulation: pH found to produce rapid diffusion across the membrane, pH adjusted with sodium bicarbonate or citric acid
Text: A flat section of either pig or sheep intestinal membrane is mounted across the open top of the vial. A screw top having a 7 mm hole (approximate) is then screwed to the vial, thereby securing the membrane to the vial. The vial is inverted and immersed in an isotonic solution (e.g., saline). Diffusion of the formulation is then allowed to proceed. The isotonic solution may be agitated with a magnetic stirrer. A pipette is used to sampling the saline solution at designated time intervals (e.g., 5, 10, 30, 60, 90, 180, and 600 seconds).
Other membranes may be used, including commonly available natural casing for food preparation, or cell culture human membranes (e.g. membranes from MatTek Corporation; Ashland, Mass.). […] Samples may contain vitamin B12 and arginine. The pH of the formulation may be adjusted as necessary.
The following compounds were analyzed in in vitro tests and the pH of the solutions were adjusted to the values noted below with either sodium bicarbonate (solid) or citric acid to produce the desired testing pH solutions.

[2] = in vivo sublingual administration to rats, active agent in plasma by HPLC; parameters: species or system Sprague Dawley rats; conditions: sublingual experimental formulation in rats; ng/mL in serum relative to ng/mL in serum from published studies (conventional control dose)
Description: Formulations comprising a variety of active agents were also tested in vivo. A […] volume/400 g animal formulation was administered sublingually to rats (Sprague Dawley rats, with jugular catheters were purchased from Charles River Laboratories). All rats were in the 275-300 g weight range.
All dose formulations were prepared on the day of dosing. Prior to dose administration, each rat was anesthetized with ketamine:xylazine (7:1, 60 mg/kg, IM) and positioned (supine) so that the head and shoulders were in alignment to preclude drainage of the dose into the trachea or esophagus. The mouth was opened and the interior (including under the tongue) was swabbed with dry cotton applicators. The tongue was held up and the dose was dispensed (same technician for all applications) into the sublingual pocket. The tongue was allowed to return to a normal position and the mouth was allowed to close.
Blood samples were drawn via catheter or cardiac puncture either 10 minutes following administration, or over a time range including 30 seconds, 1 minute, 5 minutes and 15 minutes following administration. The concentration (ng/mL) of the active agent in rat plasma was calculated using high powered liquid chromatography (HPLC). Efficiency was calculated as (ng/mL administered active agent in serum)/(ng/mL active agent in serum from published studies).

Row | Molecule | Optimal pH Conditions with Experimental Formulation [1] | Observed Plasma Levels [2] [%] | further results
1 | Etanercept | pH 8 |  | rate of absorption ([1]; at lower pH values (than approximately 8.0)): dramatically reduced by at least a factor of five times; transport of the drug after elimination of each of the cofactors of the formulation ([1]; in most tests): slight to substantial decreases; pH at which transport occurred ([1]; in vitro membrane test of Example 3): 8 pH; rates of membrane transport ([1]; pH adjusted to approximately 8.0): substantially increased
2 | Enoxaparin Sodium | pH 8.0 to 6.0 |  | 
3 | CCCc1nn(C)c2c(=O)[nH]c(-c3cc(S(=O)(=O)N4CCN(C)CC4)ccc3OCC)nc12 [Sildenafil] | pH 6.8 |  | 
4 | CNC[C@H](O)c1ccc(O)c(O)c1 [Epinephrine] | pH 5.0 to 7.0 | 0 to 600 | 
5 | CCCc1nn(C)c2c(=O)[nH]c(-c3cc(S(=O)(=O)N4CCN(C)CC4)ccc3OCC)nc12 [sildenafil citrate] |  | 169.00 | 
6 | CC[C@H](C)[C@H](NC(=O)[C@H](CCC(=O)O)NC(=O)[C@H](CO)NC(=O)[C@@H](NC(=O)[C@@H](N)CO)C(C)C)C(=O)N[C@@H](CCC(N)=O)C(=O)N[C@@H](CC(C)C)C(=O)N[C@@H](CCSC)C(=O)N[C@@H](Cc1cnc[nH]1)C(=O)N[C@@H](CC(N)=O)C(=O)N[C@@H](CC(C)C)C(=O)NCC(=O)N[C@@H](CCCCN)C(=O)N[C@@H](Cc1cnc[nH]1)C(=O)N[C@@H](CC(C)C)C(=O)N[C@@H](CC(N)=O)C(=O)N[C@@H](CO)C(=O)N[C@@H](CCSC)C(=O)N[C@@H](CCC(=O)O)C(=O)N[C@@H](CCCN=C(N)N)C(=O)N[C@H](C(=O)N[C@@H](CCC(=O)O)C(=O)N[C@@H](Cc1c[nH]c2ccccc12)C(=O)N[C@@H](CC(C)C)C(=O)N[C@@H](CCCN=C(N)N)C(=O)N[C@@H](CCCCN)C(=O)N[C@@H](CCCCN)C(=O)N[C@@H](CC(C)C)C(=O)N[C@@H](CCC(N)=O)C(=O)N[C@@H](CC(=O)O)C(=O)N[C@H](C(=O)N[C@@H](Cc1cnc[nH]1)C(=O)N[C@@H](CC(N)=O)C(=O)N[C@@H](Cc1ccccc1)C(=O)O)C(C)C)C(C)C [Teriparatide (rDNA Origin), Teriparatide] | pH 6.8 |  | 
7 | Adalimumab | pH 7.7 |  | 
8 | CCCC[C@H](NC(C)=O)C(=O)N[C@H]1CC(=O)NCCCC[C@@H](C(=O)O)NC(=O)[C@H](Cc2c[nH]c3ccccc23)NC(=O)[C@H](CCCN=C(N)N)NC(=O)[C@@H](Cc2ccccc2)NC(=O)[C@H](Cc2cnc[nH]2)NC1=O [Bremelanotide] | pH 6.0 to 8.0 | 136.00 | 
9 | B1 | pH 7.4 |  | 
